Measured values from patent US20050260657A1 (UNIVERSITY OF TOKYO, published 2005).

B1: MBP-ERp44 (maltose binding protein fused ERp44) (other, mouse, UniProt Q9D1Q6 30-406, looked up, not shown: large carriers)
chain: EIASLDSENIDEILNNADVALVNFYADWCRFSQMLHPIFEEASDVIKEEYPDKNQVVFARVDCDQHSDIAQRYRISKYPTLKLFRNGMMMKREYRGQRSVKALADYIRQQKSNPVHEIQSLDEVTNLDRSKRNIIGYFEQKDSENYRVFERVASILHDDCAFLSAFGDLSKPERYNGDNVIYKPPGRSAPDMVYLGSMTNFDVTYNWIQDKCVPLVREITFENGEELTEEGLPFLILFHMKDDTESLEIFQNEVARQLISEKGTINFLHADCDKFRHPLLHIQKTPADCPVIAIDSFRHMYVFGDFKDVLIPGKLKQFVFDLHSGKLHREFHHGPDPTDTAPGEQDQDVASSPPESSFQKLAPSEYRYTLLRDRDEL

Experiments:
[1] = target: IP3R1 of mouse cerebellar microsomes in planar lipid bilayer (mouse, UniProt P11881 1-2749); test: cell-based or functional assay
Sequence of IP3R1 of mouse cerebellar microsomes in planar lipid bilayer (P11881 whole entry): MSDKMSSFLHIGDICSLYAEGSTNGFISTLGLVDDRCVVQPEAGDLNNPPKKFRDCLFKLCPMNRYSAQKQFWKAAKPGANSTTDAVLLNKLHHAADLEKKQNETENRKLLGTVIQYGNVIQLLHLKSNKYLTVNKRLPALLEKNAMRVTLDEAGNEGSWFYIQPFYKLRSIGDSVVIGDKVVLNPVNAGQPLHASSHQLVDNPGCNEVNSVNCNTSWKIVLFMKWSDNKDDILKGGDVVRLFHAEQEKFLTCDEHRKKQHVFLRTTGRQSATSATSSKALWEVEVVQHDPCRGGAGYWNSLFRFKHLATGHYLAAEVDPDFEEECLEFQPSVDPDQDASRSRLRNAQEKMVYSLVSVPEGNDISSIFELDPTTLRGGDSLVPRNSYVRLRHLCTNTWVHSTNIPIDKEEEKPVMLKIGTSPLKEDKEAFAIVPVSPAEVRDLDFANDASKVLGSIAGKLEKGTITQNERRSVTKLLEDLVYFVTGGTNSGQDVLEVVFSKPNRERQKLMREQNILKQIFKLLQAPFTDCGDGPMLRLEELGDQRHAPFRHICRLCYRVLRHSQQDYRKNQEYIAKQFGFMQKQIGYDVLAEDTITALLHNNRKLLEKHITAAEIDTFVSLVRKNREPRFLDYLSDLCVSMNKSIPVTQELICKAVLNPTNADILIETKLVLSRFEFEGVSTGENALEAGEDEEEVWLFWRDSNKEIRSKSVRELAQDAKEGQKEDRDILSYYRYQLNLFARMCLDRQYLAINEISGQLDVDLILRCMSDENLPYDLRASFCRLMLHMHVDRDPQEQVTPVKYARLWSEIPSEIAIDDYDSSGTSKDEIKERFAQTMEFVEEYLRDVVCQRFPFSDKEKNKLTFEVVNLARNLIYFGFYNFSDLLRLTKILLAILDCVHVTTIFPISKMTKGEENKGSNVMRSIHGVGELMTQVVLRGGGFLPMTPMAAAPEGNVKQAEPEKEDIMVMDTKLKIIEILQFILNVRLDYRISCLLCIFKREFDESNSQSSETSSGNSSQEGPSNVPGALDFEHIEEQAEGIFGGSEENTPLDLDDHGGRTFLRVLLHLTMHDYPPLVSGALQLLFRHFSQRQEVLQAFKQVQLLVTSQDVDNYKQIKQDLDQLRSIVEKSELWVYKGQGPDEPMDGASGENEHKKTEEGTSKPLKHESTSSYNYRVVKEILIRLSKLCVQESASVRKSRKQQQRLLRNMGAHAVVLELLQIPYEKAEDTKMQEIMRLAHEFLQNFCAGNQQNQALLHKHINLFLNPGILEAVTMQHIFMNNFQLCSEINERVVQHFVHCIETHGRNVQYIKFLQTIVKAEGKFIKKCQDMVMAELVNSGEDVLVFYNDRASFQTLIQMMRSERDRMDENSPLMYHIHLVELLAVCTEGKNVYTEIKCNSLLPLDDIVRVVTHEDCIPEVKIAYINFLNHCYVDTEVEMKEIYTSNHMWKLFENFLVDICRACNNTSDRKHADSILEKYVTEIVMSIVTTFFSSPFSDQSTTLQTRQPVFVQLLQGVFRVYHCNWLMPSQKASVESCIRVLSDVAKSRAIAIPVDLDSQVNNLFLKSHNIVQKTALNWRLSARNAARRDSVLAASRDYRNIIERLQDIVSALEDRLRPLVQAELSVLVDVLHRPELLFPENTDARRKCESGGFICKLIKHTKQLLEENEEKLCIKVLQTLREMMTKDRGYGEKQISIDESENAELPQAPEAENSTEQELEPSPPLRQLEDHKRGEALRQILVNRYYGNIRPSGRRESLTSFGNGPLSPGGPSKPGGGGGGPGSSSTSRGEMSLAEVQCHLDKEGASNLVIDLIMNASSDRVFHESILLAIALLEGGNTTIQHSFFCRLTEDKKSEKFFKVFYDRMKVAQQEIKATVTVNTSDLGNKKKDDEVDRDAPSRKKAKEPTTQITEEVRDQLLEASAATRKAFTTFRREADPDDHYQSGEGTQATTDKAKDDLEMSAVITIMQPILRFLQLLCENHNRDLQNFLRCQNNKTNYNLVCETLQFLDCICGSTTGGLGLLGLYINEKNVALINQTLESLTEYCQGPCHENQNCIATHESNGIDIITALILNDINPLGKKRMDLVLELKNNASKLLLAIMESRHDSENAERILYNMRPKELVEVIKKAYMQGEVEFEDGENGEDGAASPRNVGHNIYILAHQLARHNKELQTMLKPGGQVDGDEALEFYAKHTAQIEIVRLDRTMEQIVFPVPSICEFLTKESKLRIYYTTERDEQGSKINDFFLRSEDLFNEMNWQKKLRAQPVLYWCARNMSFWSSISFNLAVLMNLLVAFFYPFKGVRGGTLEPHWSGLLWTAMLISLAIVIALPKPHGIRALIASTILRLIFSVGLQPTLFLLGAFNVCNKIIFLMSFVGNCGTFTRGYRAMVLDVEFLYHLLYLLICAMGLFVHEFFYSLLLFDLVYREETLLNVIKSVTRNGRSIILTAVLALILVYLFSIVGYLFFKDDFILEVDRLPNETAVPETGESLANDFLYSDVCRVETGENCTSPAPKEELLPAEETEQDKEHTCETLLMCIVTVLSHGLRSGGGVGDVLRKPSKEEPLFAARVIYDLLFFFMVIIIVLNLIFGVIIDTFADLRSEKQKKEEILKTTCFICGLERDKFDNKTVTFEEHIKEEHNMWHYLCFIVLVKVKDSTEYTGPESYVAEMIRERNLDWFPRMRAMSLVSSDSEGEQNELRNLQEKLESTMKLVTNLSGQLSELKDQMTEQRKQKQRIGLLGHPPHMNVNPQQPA

[2] = target: MBP (maltose binding protein alone) (UniProt P0AEX9 27-392 = MBP); test: GST pull-down, pH 5.2, 4 mM Ca2+
[3] = target: B1; test: GST pull-down, acid buffer with Ca2+
[4] = target: T1, GFP-IP3R1 (IP3R1 fused N-terminally with green fluorescent protein) (UniProt P11881 1-2749); test: co-immunoprecipitation from COS-7 cells exposed to ATP (activator of purinergic receptors), DSP crosslink
T1 construct: Expressed in COS-7 or DT40-TKO cells; also called GFP-IP3R1-N; not shown: green fluorescent protein

[5] = target: T2, IP3R1 (inositol 1,4,5-trisphosphate receptor type 1), untagged, expressed in cells (mouse, UniProt P11881 1-2749); test: interaction in transfected cells; data not shown
T2 construct: whole, on cells; ER membrane channel; species is printed for the DT40-KMN60 line, not for the COS-7 vector; also called mouse IP3R1 in DT40-KMN60 cells

In the case of B1, the “Single-channel open probability (IC50)” value [1] is reported as 1000 nM.

B2: GST-1L3V (glutathione S-transferase fused L3V domain of IP3R1) (other, not shown: a dimerising Fc or GST; large carriers; small tags and cut ends)
chain: KDDFILEVDRLPNETAVPETGESLANDFLYSDVCRVETGENCTSPAPKEELLPAEETEQDKEHTCE
notes: Expressed in E. coli, purified on GSH-Sepharose; also called GST-L3V
B2: no binding [2]; binds [3].

B3: HA-ERp44 (haemagglutinin A epitope-tagged ERp44) (other, mouse, UniProt Q9D1Q6 30-406, looked up, not shown: small tags and cut ends)
chain: EIASLDSENIDEILNNADVALVNFYADWCRFSQMLHPIFEEASDVIKEEYPDKNQVVFARVDCDQHSDIAQRYRISKYPTLKLFRNGMMMKREYRGQRSVKALADYIRQQKSNPVHEIQSLDEVTNLDRSKRNIIGYFEQKDSENYRVFERVASILHDDCAFLSAFGDLSKPERYNGDNVIYKPPGRSAPDMVYLGSMTNFDVTYNWIQDKCVPLVREITFENGEELTEEGLPFLILFHMKDDTESLEIFQNEVARQLISEKGTINFLHADCDKFRHPLLHIQKTPADCPVIAIDSFRHMYVFGDFKDVLIPGKLKQFVFDLHSGKLHREFHHGPDPTDTAPGEQDQDVASSPPESSFQKLAPSEYRYTLLRDRDEL
notes: whole, on cells; tagged vectors made by PCR
B3 was tested, and the “fold increase of GFP-IP3R1 co-precipitated with HA-ERp44 after the treatment against untreated cells” value [4] was roughly 2 fold.

B4: ERp44-C58S (other, UniProt Q9D1Q6 30-406, looked up)
chain: EIASLDSENIDEILNNADVALVNFYADWSRFSQMLHPIFEEASDVIKEEYPDKNQVVFARVDCDQHSDIAQRYRISKYPTLKLFRNGMMMKREYRGQRSVKALADYIRQQKSNPVHEIQSLDEVTNLDRSKRNIIGYFEQKDSENYRVFERVASILHDDCAFLSAFGDLSKPERYNGDNVIYKPPGRSAPDMVYLGSMTNFDVTYNWIQDKCVPLVREITFENGEELTEEGLPFLILFHMKDDTESLEIFQNEVARQLISEKGTINFLHADCDKFRHPLLHIQKTPADCPVIAIDSFRHMYVFGDFKDVLIPGKLKQFVFDLHSGKLHREFHHGPDPTDTAPGEQDQDVASSPPESSFQKLAPSEYRYTLLRDRDEL
notes: whole, on cells
B4: binds [5].
